Measurements from patent US20240084003A1.
Blank lines part the entries; values can stand above or below the substance they belong to.

Assays:
[1] = target: human CD22 (full length, on cells) (human) (UniProt P20273); assay: FACS on CHO-K1-human CD22 clone 1G5
[2] = target: human CD22 (full length, on cells) (human) (UniProt P20273); assay: FACS on CHO-K1-human CD22 clone 2C4
[3] = target: human CD22 (full length, on cells) (human) (UniProt P20273); assay: FACS on CHO-K1-human CD22 clone 1D9
[4] = target: human CD22 (full length, on cells) (human) (UniProt P20273); assay: FACS on Raji cells, control of the m971 row
[5] = target: human CD22 (full length, on cells) (human) (UniProt P20273); assay: FACS on Raji cells, control of the HA22 row
[6] = target: monkey CD22 on HEK293T-monkey CD22 cells (monkey); assay: FACS, HEK293T-monkey CD22 cells
[7] = target: human CD22, endogenous on Raji cells (human) (UniProt P20273); assay: FACS, Raji cells
[8] = target: human CD22, full length, on CHO-K1-human CD22 2C4 cells (human) (UniProt P20273); assay: FACS, CHO-K1-human CD22 2C4 cells
Sequence of human CD22, full length, on CHO-K1-human CD22 2C4 cells (human) (P20273 20-847 limits assumed): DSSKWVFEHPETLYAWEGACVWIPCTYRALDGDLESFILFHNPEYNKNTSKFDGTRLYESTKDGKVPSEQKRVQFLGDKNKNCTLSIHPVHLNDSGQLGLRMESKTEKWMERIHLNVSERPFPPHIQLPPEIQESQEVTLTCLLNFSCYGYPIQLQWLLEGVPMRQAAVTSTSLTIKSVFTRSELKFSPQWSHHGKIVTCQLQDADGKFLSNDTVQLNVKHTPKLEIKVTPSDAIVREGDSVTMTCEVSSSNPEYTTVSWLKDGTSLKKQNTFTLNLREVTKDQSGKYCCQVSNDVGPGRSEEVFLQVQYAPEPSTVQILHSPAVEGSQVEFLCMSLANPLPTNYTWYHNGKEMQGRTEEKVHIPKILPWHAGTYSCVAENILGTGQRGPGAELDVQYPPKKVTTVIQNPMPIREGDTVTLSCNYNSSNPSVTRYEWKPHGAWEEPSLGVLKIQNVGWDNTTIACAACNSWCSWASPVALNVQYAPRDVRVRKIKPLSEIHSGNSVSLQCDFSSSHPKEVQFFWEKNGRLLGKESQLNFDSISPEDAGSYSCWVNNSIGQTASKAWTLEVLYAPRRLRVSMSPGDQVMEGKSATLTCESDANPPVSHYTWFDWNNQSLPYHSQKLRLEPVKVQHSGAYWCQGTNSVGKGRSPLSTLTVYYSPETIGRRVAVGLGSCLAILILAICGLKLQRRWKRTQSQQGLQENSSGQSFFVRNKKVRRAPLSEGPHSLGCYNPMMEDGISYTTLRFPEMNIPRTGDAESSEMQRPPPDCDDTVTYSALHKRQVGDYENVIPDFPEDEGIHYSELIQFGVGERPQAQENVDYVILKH

Sequence of human CD22 (full length, on cells) (human) (P20273 20-847 limits assumed): as above
Sequence of monkey CD22 on HEK293T-monkey CD22 cells (monkey) (chain, as listed by the source limits assumed): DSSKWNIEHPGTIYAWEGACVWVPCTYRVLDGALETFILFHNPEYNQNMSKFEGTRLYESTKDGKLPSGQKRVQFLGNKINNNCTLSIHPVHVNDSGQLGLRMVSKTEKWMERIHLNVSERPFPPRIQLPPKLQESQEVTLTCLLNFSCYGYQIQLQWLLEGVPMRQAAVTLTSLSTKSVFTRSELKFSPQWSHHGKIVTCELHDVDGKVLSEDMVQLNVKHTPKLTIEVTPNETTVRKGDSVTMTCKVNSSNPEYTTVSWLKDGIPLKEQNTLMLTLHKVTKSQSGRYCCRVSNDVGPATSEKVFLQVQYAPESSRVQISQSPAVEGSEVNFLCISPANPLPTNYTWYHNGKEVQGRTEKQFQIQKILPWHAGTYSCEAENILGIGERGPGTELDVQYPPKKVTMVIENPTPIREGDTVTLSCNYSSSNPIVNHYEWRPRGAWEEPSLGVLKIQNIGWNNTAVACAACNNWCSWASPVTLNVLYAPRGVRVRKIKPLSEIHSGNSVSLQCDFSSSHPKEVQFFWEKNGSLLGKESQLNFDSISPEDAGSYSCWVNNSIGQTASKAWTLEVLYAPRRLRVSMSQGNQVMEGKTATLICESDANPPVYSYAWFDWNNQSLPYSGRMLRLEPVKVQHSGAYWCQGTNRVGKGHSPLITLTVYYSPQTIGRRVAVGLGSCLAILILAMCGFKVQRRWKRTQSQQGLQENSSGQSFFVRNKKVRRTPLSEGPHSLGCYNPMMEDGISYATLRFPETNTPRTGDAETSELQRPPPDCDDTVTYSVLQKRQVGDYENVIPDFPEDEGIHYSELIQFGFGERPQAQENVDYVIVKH
Sequence of human CD22, endogenous on Raji cells (human) (P20273 20-847): as the sequence (P20273 20-847 limits assumed) above

- Cell mean fluorescence intensity [1]: 66 MFI
- Cell mean fluorescence intensity [2]: 66 MFI
- Cell mean fluorescence intensity [3]: 66 MFI
- Cell mean fluorescence density [4]: 44 MFI
- Cell mean fluorescence density [5]: 44 MFI
Substance: IgG subtype control (antibody)

- Maximum mean fluorescence intensity [6]: 129 MFI
Substance: anti-hel-hIgG1 (antibody)

- Maximum mean fluorescence intensity [7]: 564 MFI
- Maximum mean fluorescence intensity [8]: 150 MFI
Substance: anti-hel-hIgG1 (negative control antibody against chicken egg lysozyme)
